Results reported in patent EP3444273A1 (Medicinal Bioconvergence Research Center, dated 2019).
Ends that are not written are not given here.

B1: H5 Fab (Fab, V domains shown)
VH: QEQLVESGGGLVTPGGTLTLTCTASGFTISSYHMTWVRQAPGKGLEWIGVISNSGGTSYANWAKGRFTISKTSTTVDLKITSPTTEDTATYFCVRGVPGINSNLWGQGTLVTISS
VL: AQVLTQTPSSVSAAVGGTVTINCQSSQSVYSGNWLAWYQQKPGQPPKLLIYSTSTLASGVPSRFKGSGSGTQFTLTVSDLECDDAATYYCAGDYDGYKNAFGGGTKVVVKR
notes: Expressed from pComb3XTT in E. coli and used as periplasmic extract; Detected with anti-HA tag or anti-human Fab secondary antibody, so a tag may be present; also called antibody (Fab) of clone H5; rabbit/human chimeric Fab
B2: H5 IgG antibody (antibody, V domains shown)
VH: B1 VH
VL: B1 VL
notes: also called H5 antibody (IgG); H5 antibody

How the values were obtained:
[1] = target: T1, BSA-conjugated AIMP2-DX2 antigen peptide (human, not fully specified (residue 12); also: C-terminal Cys conjugated to BSA carrier); assay: ELISA, plate coated with BSA-conjugated antigen peptide, periplasmic extract
T1 construct: The BSA carrier is not written as a chain; also called AIMP2-DX2 antigen peptide (the same peptide used in the rabbit immunization, conjugated to BSA)
T1 peptide: GHVQDYGALKDC

[2] = target: T2, AIMP2-DX2 antigen peptide (human, not fully specified); assay: antigen pre-adsorption, Western blot of HEK293T lysate, peptide at 100 ug/ml
T2 construct: Used in solution for pre-adsorption in Western blots (100 ug/ml) and as analyte in SPR
T2 peptide: GHVQDYGALKD

[3] = target: T3, wild-type AIMP2 protein (human, UniProt Q13155 1-320); assay: Western blot of H460 cell lysate
T3 construct: Endogenous protein of H460 cell lysate; also called wild-type (WT) AIMP2
T3 sequence (looked up): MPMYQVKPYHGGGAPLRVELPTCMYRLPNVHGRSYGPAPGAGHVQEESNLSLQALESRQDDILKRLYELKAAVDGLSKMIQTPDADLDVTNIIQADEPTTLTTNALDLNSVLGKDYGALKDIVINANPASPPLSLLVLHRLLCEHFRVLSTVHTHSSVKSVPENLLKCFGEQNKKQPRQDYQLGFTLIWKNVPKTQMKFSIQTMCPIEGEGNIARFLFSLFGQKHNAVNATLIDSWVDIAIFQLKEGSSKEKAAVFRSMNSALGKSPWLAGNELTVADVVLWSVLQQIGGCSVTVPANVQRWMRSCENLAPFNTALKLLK

[4] = target: T2, AIMP2-DX2 antigen peptide; assay: SPR, H5 IgG coated on CM5 chip, peptide flowed at various concentrations

| Binder | binding result [1] | binding result [2] | binding result [3] | binding result [4] |
| --- | --- | --- | --- | --- |
| B1 | binds | binds | no binding | – |
| B2 | – | – | – | binds |
